{
  "source": "paper PMC3343699",
  "key": {"[1]": {"target": "Recombinant Aα221–391 fragment corresponding to the human fibrinogen αC-connector (human)", "assay": "optical trap-based force spectroscopy"}, "[2]": {"target": "Lys429Cys/Thr463Cys double mutant of the bovine Aα406–483 fragment, first fraction (Fr-1) (bovine)", "assay": "SEC"}, "[3]": {"target": "Lys429Cys/Thr463Cys double mutant of the bovine Aα406–483 fragment, first fraction (Fr-1) (bovine)", "assay": "SEC", "remark": "listed apart in the source"}, "[4]": {"target": "Lys429Cys/Thr463Cys double mutant of the bovine Aα406–483 fragment, first fraction (Fr-1) (bovine)", "assay": "SEC", "remark": "listed apart in the source"}, "[5]": {"target": "Recombinant Aα392–503 fragment corresponding to the N-terminal subdomain of the human fibrinogen αC-domain (human)", "assay": "optical trap-based force spectroscopy"}},
  "note": "Like-named read-outs stand apart in the source and are kept apart here.",
  "data": [
    {"substance": "Recombinant Aα504–610 fragment corresponding to the C-terminal subdomain of the human fibrinogen αC-domain (domain or fragment)", "values": [
      {"measurement": "cumulative binding probability", "setting": "[1]", "value": 46, "unit": "%"},
      {"measurement": "rupture force peak", "setting": "[1]", "value": 26, "unit": "pN"}
    ]},
    {"substance": "Lys429Cys/Thr463Cys double mutant of the bovine Aα406–483 fragment, first fraction (Fr-1) (domain or fragment)", "values": [
      {"measurement": "oligomers (%)", "setting": "[2]", "value": 31.7, "unit": "%"},
      {"measurement": "oligomers (%)", "setting": "[3]", "value": 5.9, "unit": "%"},
      {"measurement": "oligomers (%)", "setting": "[4]", "value": 12.4, "unit": "%"}
    ]},
    {"substance": "Recombinant Aα392–503 fragment corresponding to the N-terminal subdomain of the human fibrinogen αC-domain (domain or fragment)", "values": [
      {"measurement": "cumulative binding probability", "setting": "[5]", "value": 67, "unit": "%"},
      {"measurement": "rupture force peak 1", "setting": "[5]", "value": 16, "unit": "pN"},
      {"measurement": "rupture force peak 2", "setting": "[5]", "value": 32, "unit": "pN"},
      {"measurement": "rupture force peak 3", "setting": "[5]", "value": 48, "unit": "pN"}
    ]},
    {"substance": "Recombinant Aα392–610 fragment corresponding to the human fibrinogen αC-domain (domain or fragment)", "values": [
      {"measurement": "cumulative binding probability", "setting": "[1]", "value": 51, "unit": "%"},
      {"measurement": "rupture force peak", "setting": "[1]", "value": 22, "unit": "pN"}
    ]}
  ]
}
